This note sets out measurements from US20010024831A1.

In this assay the target is specific antigen (aa 245-258 of the GCN4 leucine zipper) fused to LexA (yeast). Kind of assay: yeast two hybrid, LacZ reporter, bait LexA-GCN4 leucine zipper; Empty Vector is printed as 0.18.

Substance “Gal4 AD-AL5 scFv fusion (ampicillin-binding control scFv AL5) (from UniProt P04386 768-881)” came in with a Rel. β-gal. activity % of 0.19%.
